The results in this text go back to the supplement of paper PMC9170038.

The series deals with MS2 coat protein. The series can be described thus: apparent KD of MS2 coat protein; designed switch direction (-1 OFF switch, 1 ON switch): 1; higher = weaker reporter binding. The method in brief: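 The apparent KD reported per design is the median over clusters of curve fits to normalised cluster fluorescence. The RNA switches were transcribed on Illumina chips by stalled E. coli RNA polymerase. SNAP-549-labelled MS2 coat protein was titrated from 0.7 or 1.5 nM, doubling up to 3 µM, in Tris-HCl pH 7.5 buffer containing KCl, MgCl2, BSA, DTT, tRNA and Tween-20, with no input, 200 uM small-molecule ligand, or an oligonucleotide input.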

Where [1] appears, read: input ligand: microRNA oligo, concentration not stated.
Setting [2] is: Eterna round: R95, input ligand: FMN 200 uM.
Setting [3] is: Eterna round: R95, input ligand: microRNA oligo, concentration not stated.
[4] abbreviates: Eterna round: R95, input ligand: none.

As to “AAACGGCCGAACGGAGGACCACAUGAGGAUCACCCAUGUACAUAGGAUAUCAUGCCAACGAGGCAUGAGAAGGGUGAUUAAAAC [Ribigeso] (Eterna round: R96, puzzle: Same State NG 3)”, the “apparent KD of MS2 coat protein” value (input ligand: FMN 200 uM) is 126 nM, the “apparent KD of MS2 coat protein” value under setting [1] stood at 27.6 nM and the “apparent KD of MS2 coat protein” value (input ligand: none) amounted to 32 nM.

“AAACUGGAGGACAAGGAUAUGUGCUCUACGACAUGAGGAUCACCCAUGUGAGACGUAGUAGUGAAACAGAAGGUGUCCUAUUGUA [Tiarri] (Eterna round: R96, puzzle: Same State 2)”: the “apparent KD of MS2 coat protein” value under setting [1] turned out to be 14.2 nM.

Regarding “AAAGAAAACAUAGGAUAUGUAACAUGAGGAUCACCCAUGUGUAGCCCGUAAGGGAUGACGGAUGGACAGAAGGAUGGUCUCAGG [Default title] (Eterna round: R96, puzzle: Same State NG 2)”, the “apparent KD of MS2 coat protein” value runs as follows: (input ligand: FMN 200 uM) 403 nM; under setting [1], 155 nM; (input ligand: none) 104 nM.

Turning to “AAAGCAAUGGUACAGGAUAUGUACGGUCGUACAUGAGGAUCACCCAUGUCGCUGGAAAGGUAGAUACAGAAGGGUGCCCAUGCGU [Riintile] (puzzle: Same State 2)”, the “apparent KD of MS2 coat protein” value under setting [2] is 34.4 nM, the “apparent KD of MS2 coat protein” value under setting [3] was 161 nM and the “apparent KD of MS2 coat protein” value under setting [4] turned out to be 210 nM.

“AAAGCCCGUGCUAAGGAUAUGCGUACUCCUACAUGAGGAUCACCCAUGUCCCGCCGAAAAGGAAGGCAGAAGGUAGCACGAGCAA [Teerarti] (puzzle: Same State 2)”: the “apparent KD of MS2 coat protein” value stood at 53.7 nM under setting [2], 96.5 nM under setting [3] and 102 nM under setting [4].

Consider “AAAUAAAACACAGGAUAUGCAACCAAUACGGCGGCAGAAGGGUGAGACAUGAGGAUCACCCAUGUACACGUCCCACAGACGUGC [Onlaa] (Eterna round: R96, puzzle: Same State NG 1)”, for which the “apparent KD of MS2 coat protein” value (input ligand: FMN 200 uM) amounted to 387 nM, the “apparent KD of MS2 coat protein” value under setting [1] was found to be 243 nM and the “apparent KD of MS2 coat protein” value (input ligand: none) came out at 175 nM.

In the case of “AACAAGCACAUGAGGAUCACCCAUGUGAGAAUAAAACCCUCAUAGGAUAUCCGCGGUUAACUCCCGGAGAAGGGUGAGACUCCU [Edtiedus] (Eterna round: R96, puzzle: Same State NG 3)”, the “apparent KD of MS2 coat protein” value turned out to be 266 nM (input ligand: FMN 200 uM), 429 nM under setting [1] and 390 nM (input ligand: none).

Take “AACAAUCUAUCUGAGGAUAUCAUGAAAAAAACAUGAGGAUCACCCAUGUGCAGGAAAACUGCAUAUGAGAAGGCAGAUAGAUUGU [salish99_SS2_r3_002] (Eterna round: R96, puzzle: Same State 2)”: under setting [1], the “apparent KD of MS2 coat protein” value is 480 nM.

Take “AACAAUCUAUCUGAGGAUAUCAUGAAAAAAACAUGAGGAUCACCCAUGUGCAGGAAAACUGCAUAUGAGAAGGCAGAUAGAUUGU [salish99_SS2_r3_002] (puzzle: Same State 2)”: the “apparent KD of MS2 coat protein” value amounted to 28.9 nM under setting [2], 621 nM under setting [3] and 769 nM under setting [4].

As to “AACAAUCUAUCUGAGGAUAUCAUGAAAUAAACAUGAGGAUCACCCAUGUGCAUGAAAACUGCAUAUGAGAAGGCAGAUAGAUUGA [salish99_ss2_r3_038] (puzzle: Same State 2)”, the “apparent KD of MS2 coat protein” value is, setting by setting: under setting [2], 54.8 nM; under setting [3], 415 nM; under setting [4], 472 nM.

As for “AACAAUCUAUCUGAGGAUAUCAUGAUAAGAACAUGAGGAUCACCCAUGUGCAGGAAAACUGCAUAUGAGAAGGCAGAUAGAUUGG [Mat - Same State 2 - Mod - D19] (puzzle: Same State 2)”, the “apparent KD of MS2 coat protein” value came to 42.5 nM under setting [2], 492 nM under setting [3] and 472 nM under setting [4].

In the case of “AACAAUCUAUCUGAGGAUAUCAUUAAAUAAACAUGAGGAUCACCCAUGUGCAGGAAAACUGCAUAUGAGAAGGCAGAUAGAUUGA [salish99_ss2_r3_029] (puzzle: Same State 2)”, the “apparent KD of MS2 coat protein” value is 12.3 nM under setting [2], 46.2 nM under setting [3] and 55.2 nM under setting [4].

Turning to “AACAUACAUGAGGAUCACCCAUGUUCCGGCAGGACAGGAUAUACAUCGAAAGUGUUAUAAGUAGAAGGGUCAUAAA [JR_SS001_Sub012] (Eterna round: R96, puzzle: Same State 1)”, the “apparent KD of MS2 coat protein” value (input ligand: FMN 200 uM) amounted to 63.4 nM, the “apparent KD of MS2 coat protein” value under setting [1] came to 56.6 nM and the “apparent KD of MS2 coat protein” value (input ligand: none) came to 79.8 nM.

As to “AACAUGUGGUGUCACAUGAGGAUCACCCAUGUGGUAAAACCUGAGGAUAUAACGAACCAAAUCAAUUAGAAGGUAGGAUCACAA [AK SSNG3-V2-18] (Eterna round: R96, puzzle: Same State NG 3)”, the “apparent KD of MS2 coat protein” value is, setting by setting: (input ligand: FMN 200 uM) 59.7 nM; under setting [1], 46.5 nM; (input ligand: none) 64.2 nM.

As for “AACAUUCUAUCUGAGGAUAUCAUGAAAUAAACAUGAGGAUCACCCAUGUGCAGGAAAACUGCAUAUGAGAAGGCAGAUAGAUUGA [salish99_ss2_r3_022] (puzzle: Same State 2)”, the “apparent KD of MS2 coat protein” value under setting [2] was 44.9 nM, the “apparent KD of MS2 coat protein” value under setting [3] was 1870 nM and the “apparent KD of MS2 coat protein” value under setting [4] turned out to be 3320 nM.

Turning to “AAGAAAUCCGCAGGAUAUCCUAAGCCGGGCUUAGGAGAAGGGUGGCCACAUGAGGAUCACCCAUGUAAAAGCUGAAUCACAGCC [Aerququ] (Eterna round: R96, puzzle: Same State NG 1)”, the “apparent KD of MS2 coat protein” value runs as follows: (input ligand: FMN 200 uM) 237 nM; under setting [1], 388 nM; (input ligand: none) 523 nM.

“AAGAAGACGAACAAGGAUAUGUCAAAGGAAACAUGAGGAUCACCCAUGUAGAGAUUGGAAAAGAAACAGAAGGUGUACAGAGAGA [JR_SS2_Sub006] (puzzle: Same State 2)”: the “apparent KD of MS2 coat protein” value reads like this: under setting [2], 18.7 nM; under setting [3], 33.2 nM; under setting [4], 24.5 nM.

Take “AAGCCUAAACGGCGAAAACGACAUGAGGAUCACCCAUGUACACAGGAUAUCAGCCUGCUACAGGCUGAGAAGGGUGAACCUAAA [Maisveon] (Eterna round: R96, puzzle: Same State NG 3)”: the “apparent KD of MS2 coat protein” value came to 797 nM (input ligand: FMN 200 uM), 63.8 nM under setting [1] and 113 nM (input ligand: none).

Take “AAGCUCGUGUGAGGAUAUGCCGCCGUUUCGGCUGCAGAAGGUGCUACGUUACAUGAGGAUCACCCAUGUCUCUGUUGUUUCGUG [salish99_SSNG1_r04_953] (Eterna round: R96, puzzle: Same State NG 1)”: the “apparent KD of MS2 coat protein” value under setting [1] amounted to 18.5 nM.

Turning to “AAGGGAUGAGCGUAGGAUAUAGGAGAAGUGACAUGAGGAUCACCCAUGUAAAAGGAGGGAUGAGACUAGAAGGACGAGGUAGGAG [JR_SS2_Sub059] (Eterna round: R96, puzzle: Same State 2)”, the “apparent KD of MS2 coat protein” value was found to be 82.7 nM (input ligand: FMN 200 uM), 55.4 nM under setting [1] and 78.3 nM (input ligand: none).

Take “AAGGGAUGAGCGUAGGAUAUAGGAGAAGUGACAUGAGGAUCACCCAUGUAAAAGGAGGGAUGAGACUAGAAGGACGAGGUAGGAG [JR_SS2_Sub059] (puzzle: Same State 2)”: the “apparent KD of MS2 coat protein” value under setting [2] came to 132 nM, the “apparent KD of MS2 coat protein” value under setting [3] amounted to 84.6 nM and the “apparent KD of MS2 coat protein” value under setting [4] turned out to be 91.5 nM.

As to “AAGUGAUGGGUUAGUAACUGCUAGUAAGGACAUGAGGAUCACCCAUGUGAGUAACGAGCUUUUGCUCGUCUUAUAAA [JR_SHM208A_Sub020] (puzzle: Sensor for hsa-mir-208a)”, the “apparent KD of MS2 coat protein” value runs as follows: under setting [2], 89.7 nM; under setting [3], 48.9 nM; under setting [4], 110 nM.
